In patent US20200164029A1 (ACCELERON PHARMA, published 2020):

Assays:
Assay in all cases: SPR, captured hENG-hFc, soluble ligand
hENG(26-332)-hFc = target: T1, hENG(26-332)-hFc (human, UniProt P17813 26-332)
T1 construct: not shown: human IgG1 Fc domain
T1 sequence: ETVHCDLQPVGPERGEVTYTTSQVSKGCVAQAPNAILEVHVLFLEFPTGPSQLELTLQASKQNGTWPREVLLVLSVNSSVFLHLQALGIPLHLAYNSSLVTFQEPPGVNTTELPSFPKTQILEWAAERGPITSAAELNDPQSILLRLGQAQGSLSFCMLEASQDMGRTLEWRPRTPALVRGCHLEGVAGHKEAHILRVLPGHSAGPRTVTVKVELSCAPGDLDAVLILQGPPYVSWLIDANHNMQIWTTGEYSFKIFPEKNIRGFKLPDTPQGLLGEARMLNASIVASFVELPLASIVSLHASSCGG

hENG(26-329)-hFc = target: T2, hENG(26-329)-hFc (human, UniProt P17813 26-329)
T2 construct: not shown: human IgG1 Fc domain
T2 sequence: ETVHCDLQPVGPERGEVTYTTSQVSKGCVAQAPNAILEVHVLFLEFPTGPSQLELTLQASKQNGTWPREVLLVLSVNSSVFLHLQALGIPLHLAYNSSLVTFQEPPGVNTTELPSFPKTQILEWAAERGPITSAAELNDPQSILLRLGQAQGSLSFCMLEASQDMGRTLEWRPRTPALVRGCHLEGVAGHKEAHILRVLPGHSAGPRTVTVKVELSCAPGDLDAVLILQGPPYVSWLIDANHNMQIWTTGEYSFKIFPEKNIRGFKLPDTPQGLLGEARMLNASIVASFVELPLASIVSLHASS

hENG(26-257)-hFc = target: T3, hENG(26-257)-hFc (human, UniProt P17813 26-257)
T3 construct: not shown: human IgG1 Fc domain
T3 sequence: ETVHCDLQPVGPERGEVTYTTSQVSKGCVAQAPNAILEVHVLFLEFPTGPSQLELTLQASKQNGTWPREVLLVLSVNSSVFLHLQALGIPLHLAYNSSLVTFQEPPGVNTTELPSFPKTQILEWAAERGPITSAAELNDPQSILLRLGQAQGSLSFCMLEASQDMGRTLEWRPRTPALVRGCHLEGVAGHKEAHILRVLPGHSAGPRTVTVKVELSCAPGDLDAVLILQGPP

hENG(360-586)-hFc = target: T4, hENG(360-586)-hFc (human, UniProt P17813 360-586)
T4 construct: not shown: human IgG1 Fc domain
T4 sequence: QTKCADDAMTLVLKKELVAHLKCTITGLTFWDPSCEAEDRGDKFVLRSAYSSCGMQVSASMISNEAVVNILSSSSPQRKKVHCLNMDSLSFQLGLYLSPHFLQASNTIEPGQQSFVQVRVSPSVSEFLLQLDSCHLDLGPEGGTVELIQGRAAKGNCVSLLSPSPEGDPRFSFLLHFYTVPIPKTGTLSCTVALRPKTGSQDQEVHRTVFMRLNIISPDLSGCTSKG

hENG(438-586)-hFc = target: T5, hENG(438-586)-hFc (human, UniProt P17813 438-586)
T5 construct: not shown: human IgG1 Fc domain
T5 sequence: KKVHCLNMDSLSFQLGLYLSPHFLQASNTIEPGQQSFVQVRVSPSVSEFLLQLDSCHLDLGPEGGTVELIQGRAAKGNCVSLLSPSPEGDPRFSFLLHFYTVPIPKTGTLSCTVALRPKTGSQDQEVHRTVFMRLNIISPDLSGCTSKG

hENG(458-586)-hFc = target: T6, hENG(458-586)-hFc (human, UniProt P17813 458-586)
T6 construct: Expressed in COS cells, not purified; not shown: human IgG1 Fc domain
T6 sequence: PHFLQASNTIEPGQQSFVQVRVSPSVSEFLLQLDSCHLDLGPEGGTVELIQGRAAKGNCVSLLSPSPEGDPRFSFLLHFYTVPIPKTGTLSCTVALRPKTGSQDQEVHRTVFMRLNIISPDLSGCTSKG

hENG(61-346)-hFc = target: T7, hENG(61-346)-hFc (human, UniProt P17813 61-346)
T7 construct: not shown: human IgG1 Fc domain
T7 sequence: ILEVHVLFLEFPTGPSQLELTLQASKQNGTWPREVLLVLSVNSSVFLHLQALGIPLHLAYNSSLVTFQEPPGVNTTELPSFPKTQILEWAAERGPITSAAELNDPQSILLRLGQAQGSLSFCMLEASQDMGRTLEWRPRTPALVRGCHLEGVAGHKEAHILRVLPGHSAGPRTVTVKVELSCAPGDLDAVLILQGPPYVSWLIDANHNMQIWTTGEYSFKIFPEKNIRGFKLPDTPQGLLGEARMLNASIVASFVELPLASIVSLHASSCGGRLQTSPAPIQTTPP

hENG(129-346)-hFc = target: T8, hENG(129-346)-hFc (human, UniProt P17813 129-346)
T8 construct: not shown: human IgG1 Fc domain
T8 sequence: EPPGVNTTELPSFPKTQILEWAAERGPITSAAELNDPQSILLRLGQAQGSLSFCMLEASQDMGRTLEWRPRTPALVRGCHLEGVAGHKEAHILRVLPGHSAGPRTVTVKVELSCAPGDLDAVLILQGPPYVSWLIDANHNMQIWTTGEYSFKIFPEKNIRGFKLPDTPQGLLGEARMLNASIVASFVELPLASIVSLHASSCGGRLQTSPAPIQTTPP

hENG(166-346)-hFc = target: T9, hENG(166-346)-hFc (human, UniProt P17813 166-346)
T9 construct: not shown: human IgG1 Fc domain
T9 sequence: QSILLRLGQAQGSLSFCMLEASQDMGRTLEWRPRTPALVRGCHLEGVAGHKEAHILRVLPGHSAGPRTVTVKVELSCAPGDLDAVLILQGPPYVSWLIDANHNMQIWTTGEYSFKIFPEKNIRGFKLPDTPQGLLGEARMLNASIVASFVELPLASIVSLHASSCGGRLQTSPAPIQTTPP

hENG(458-581)-hFc = target: T10, hENG(458-581)-hFc (human, UniProt P17813 458-581)
T10 construct: Expressed in COS cells, not purified; not shown: human IgG1 Fc domain
T10 sequence: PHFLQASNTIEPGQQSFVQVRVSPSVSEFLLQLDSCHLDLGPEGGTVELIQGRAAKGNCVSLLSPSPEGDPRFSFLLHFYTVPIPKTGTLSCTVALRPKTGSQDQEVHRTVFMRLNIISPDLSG

Measured: binding result

B1: human BMP-10 (ligand, UniProt O95393 317-424, looked up)
chain: NAKGNYCKRTPLYIDFKEIGWDSWIIAPPGYEAYECRGVCNYPLAEHLTPTKHAIIQALVHLKNSQKASKACCVPTKLEPISILYLDKGVVTYKFKYEGMAVSECGCR
notes: also called hBMP-10
no binding (tested: 100 nM): all assays above

B2: human BMP-9 (ligand, UniProt Q9UK05 320-429, looked up)
chain: SAGAGSHCQKTSLRVNFEDIGWDSWIIAPKEYEAYECKGGCFFPLADDVTPTKHAIVQTLVHLKFPTKVGKACCVPTKLSPISVLYKDDMGVPTLKYHYEGMSVAECGCR
notes: also called hBMP-9
no binding (tested: 100 nM): all assays above
